Experimental data from the nanobody polyreactivity screen of Harvey et al. (2022).

experiment: yeast display, Sf9 membrane polyspecificity reagent, FACS + sequencing; frameworks hold sequencing errors
Outline: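 In a synthetic yeast display library (Saccharomyces cerevisiae BJ5465), nanobody expression was induced with galactose for 36–48 hours. FACS gates were set low and high (top ~1%) using anti-HA fluorescence for expression and streptavidin fluorescence for binding of the Sf9 membrane reagent. Each polyreactivity label is drawn from the gate of origin.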

Row | Sequence | polyreactivity (PSR sort gate)
1 | QVQLVESGGGLVQARGSLRLSCAASGSTFSRNVMGWYRQATGKERELVAAISRGGSTNYADSVKGRFTISRDNAKNTVYLQMNSLKPEDTAVDYCAARSYGSTGPHGLKWVSYDYWGQGTQVTVSS | low polyreactivity
2 | QVQLVESGGGLVQARGSLRLSCAASGSTSDINAMGWYRHAPGKARELVAVITDSSNTDYADSVKGRFTISRDNAKNTVYLQMNSLKPEDTAVYYCARDDATAGDYWGQGTQVTVSS | low polyreactivity
3 | QVQLVESGGGLVQARGSLRLSCAASRLIFTWYAMRWSRHAPGKERELVAAISWSDDSTNYADSVKGRFTISRDNAKNTVYLLMNSLKPEDTAVYYCATQLDYGGRVGDADDYWGQGTQVTVSS | low polyreactivity
4 | QVQLVESGGGLVQARGSLRLSCAGSGSTLPSYAMGWYRQAPGKERELVAAISSSGGRTYYADSVKGRFTISRDNAKNTVYLLMNSLKPEDTAVYYCAALSVANYHGTDSGYWGQGTQVTVSS | high polyreactivity
5 | QVQLVESGGGLVQARGSLRLSCASSGFIFSRYAMGWYRQAPGKESELVAAITSGGSTYYADSVKGRFTISRDNAKNTVYLQMNSLKPEDTAVYYCNVVSKSRISQYVGYSYDYWGQGTQVTVSS | high polyreactivity
6 | QVQLVESGGGLVQARGSLRLSCASSGITFWKYTMGCYRQAPGKESELVASIRIGGSTYYADSVKGRFTISRDNAKNTVYLQMNSLKPEDTAVYYCAAKGIYGLQGSPRSGYYYWGQGTQVTVSS | high polyreactivity
7 | QVQLVESGGGLVQARGSLRLSCPASGLIFPAYAMGWYRQAPGKERELVATITWRGGSTYYADSVKGRFTISRDNAKNTVYLQMNSLKPEDTAVYYCATRPRYYYFRYDYWGQGTQVTVSS | high polyreactivity
8 | QVQLVESGGGLVQARGSLSLSCAASGSIFYYNAIGWYRQPPGKERELVATITSAVSTNYADSVKGRFTISRANAKNPVYLQMNSLKPEDTAVYYCAADDYQVQYDYWGQGTQVTVSS | low polyreactivity
9 | QVQLVESGGGLVQARGSLSLSCAATGSTSYINAMGWSSQAPWKERELVAAIRSGGSTKYADSVKGRFTISRDNAKNTVYLQMNSVLPEDSSVYYCAARNVYKTSGFRWVWNYDYWGQGTQVTVSS | high polyreactivity
10 | QVQLVESGGGLVQAVGSHRLSSAASGFIFDYNAMGWYRQEPVKVRELVAAISVSDDSTYYADSVKGRFTISRDNAKNTVYLQLNSLKPEVPAGYYCAAEWWDVIAPYDYWGLGTQVTVSS | low polyreactivity
11 | QVQLVESGGGLVQAVGSHRLSSAASGFTFRWYTMGWYRQAPGKERELVASIRYGGGSTYYADSVKGRFTISRDNAKNTVYLQMNCLKPEDTAVYYCAAESAWTSPYDYWGQGTQVTVSS | high polyreactivity
12 | QVQLVESGGGLVQAVGSLRLSCAASGFTIIDNAMGWYRQARGKERELVAAISISGGRTYYADSVKGRFTISRDNAKNTVYLQMNSLKPEDTAVYYCAAGKHRRDDYCGQGTQVTVSS | high polyreactivity
13 | QVQLVESGGGLVQAVGSLRLSCAASGLIFFYYSMGWYRPAPGKERELVAAIRTNYADSVKGRFTISRDNAKNTVYLQMNSLKREDTAAYYCAAESSQTPTSAFDYWGQGTQVTVSS | low polyreactivity
14 | QVQLVESGGGLVQAVGSLRLSCAASGLTFYSNAMGWYRQAPGKERELVATISQDGGRTYADSLKGRFTISRDNAKNTVYLQMNSLKPEDTAVYYCAKVRERINYDYWGQGTQVTVSS | low polyreactivity
15 | QVQLVESGGGLVQAVGSLRLSCAASGRIFGPNAMGWYRQAPGKERELVAAITGSGGSTYADSVKGRFTISRDNAKNTVYLQMNSLKPEDTAVYYCAKKTWYSYDWGQGTQVTVSS | high polyreactivity
16 | QVQLVESGGGLVQAVGSLRLSCAASGRIFGYYVMGWYRQAPGKERELVAAITSNGGSTYYADSVKGRFTFSRDNAKNTVYLQMNSLKPEDTAVYYGNKDKRYYRYGYWGQGTQVTVSS | high polyreactivity
17 | QVQLVESGGGLVQAVGSLRLSCAASGRTFQSYTMGWYRQAPGKEREFVAAFRDSGGSTYYADSVKGRFTISRDNAKNTVFLQMNSLKPEDTAVYYCAAYRPRKYDYWGQGTQVTVSS | high polyreactivity
